Key:
Panc1 cells = assay: In vivo Panc1 tumors in athymic nude mice treated with soluble klotho protein; details: 200 ng/day, 500 ng/day daily intra-peritoneal, up to 4 weeks
Experimental: Panc1 cells were harvested, washed twice with sterile PBS, counted and resuspended in Matrigel (BD Biosciences). Six-week-old female athymic nude mice were injected subcutaneously in both flanks with cells at a density of 0.5×10^6 cells/100 μl. The mice were treated with daily intra-peritoneal injections of either soluble klotho protein (prepared as described above): 200 ng/day, 500 ng/day, or vehicle control (saline). Five mice were used in each group. Tumor size was measured weekly with a linear caliper for up to 4 weeks, and tumor volume was estimated using the equation V=(a×b^2)×0.5236, where “a” is the larger dimension and “b” the perpendicular diameter.

MDA-MB-231 = assay: Colony formation assay after transfection with klotho protein expression vector; type: cell-based, human; details: transfected pcDNA3-HA-KL vs empty vector; G418 two weeks; p<0.0005
Experimental: (§1) Two days following transfection with the indicated plasmids, G418 (750 μg/ml) was added to the culture media; and at day 14, the cells were stained using gentian violet. Untransfected cells were treated similarly, and all died within the 2 weeks of culture in the selection media. Quantification of the results was performed using AlphaImager 2000 (Alpha Innotech, CA).
(§2) The effect of klotho protein on growth of breast cancer cells was first assessed using colony formation assays. MCF-7, MDA-MB-231 and the non-cancerous human embryonic kidney (HEK) 293 cells were transfected with either a HA-tagged klotho protein expression vector (pcDNA3-HI-A-KL) or an empty vector (pcDNA3). Transfected cells were cultured in media containing G418 for two weeks and stained to determine the number of surviving colonies.

MCF-7 = assay: as above; type: cell-based, human; details: transfected pcDNA3-HA-KL vs empty vector; G418 two weeks; p<0.0005
Experimental: as §1, §2

[1] = system: IGF-1 pathway in MCF-7 cells; assay: IGF-1 pathway activation (Western blotting) after klotho protein over-expression; type: cell-based, human; details: IGF-1 12.5 nM, 15 min
Experimental: (§3) For breast cells, cells were harvested and lysed for total protein extraction in RIPA buffer (50 mM Tris-Cl pH 7.4, 150 mM NaCl, 1% NP-40, 0.25% Na-deoxycholate, 1 mM EDTA, 1 mM NaF) together with a protease inhibitor cocktail (Sigma). 50 μg protein extracts were loaded on 10% polyacrylamide gels, separated electrophoretically and blotted from the gel onto nitrocellulose membrane (Schleicher & Schuell Bioscience GmbH, Dassel, D E). The membranes were then immunoblotted with the indicated antibodies.
(§4) MDA-MB-231 cells, which express lower levels of these receptors, were also examined. HEK 293 cells, whose growth is not dependent on the IGF-1 pathway (El-Shewy et al., 2007) and is not inhibited by klotho protein, served as control.
In order to elucidate klotho protein activity as an inhibitor of […] activation, MCF-7 cells were transfected with either pcDNA3-HA-KL or an empty vector, starved for 48 hours, treated with IGF-1 for the indicated times and doses, and analyzed using Western blotting for the level of expression and phosphorylation of IGF-1R.
(§5) In further experiments, MCF-7, MDA-MB-231 or HEK-293 cells were transfected with either pcDNA3-HA-KL or empty vector and treated with IGF-1 (12.5 nM, 15 min).

[2] = system: EGF pathway in MCF-7, MDA-MB-231 and HEK293 cells; assay: EGF pathway (ERK1/2) after klotho protein over-expression; type: cell-based, human; details: starved 48 hours
Experimental: The effects of over-expression of klotho protein on the insulin-stimulated pathway were also examined. The EGF pathway, which plays an important role in the pathogenesis of breast cancer, is not modulated by klotho protein in either L6 or H411E cells (Kurosu et al., 2005). In order to evaluate the effects of klotho protein on this pathway in MCF-7, MDA-MB-231 and HEK293 breast cancer cells, these cells were transfected with either pcDNA3-HA-KL or an empty vector, starved for 48 hours, treated with EGF, and analyzed for the expression and activity of the ERK1/2, which are downstream targets of the EGF pathway.

[3] = system: IGF-1 pathway in HEK 293 cells; assay: IGF-1 pathway activation (Western blotting) after klotho protein over-expression; type: cell-based, human; details: IGF-1 12.5 nM, 15 min
Experimental: as §3, §4, §5

[4] = system: IGF-1 pathway in MDA-MB-231 cells; assay: as above; type: cell-based, human; details: IGF-1 12.5 nM, 15 min, data not shown
Experimental: as §3, §4, §5

[5] = system: MCF-7 and MDA-MB-231 clones; assay: MTT proliferation assay of clones stably expressing klotho protein; type: cell-based, human; details: stable klotho protein-expressing clones vs pcDNA3 controls; 24-72 h
Experimental: The medium was aspirated, and the cells were dissolved by dimethyl sulfoxide (DMSO).
In order to assess the long-term effects of klotho protein expression, MCF-7 and MDA-MB-231 clones, which stably expressed either pcDNA3 or pcDNA3-HA-KL, were generated. Proliferation was evaluated by 3-(4,5-dimethylthiazol-2-yl)-2,5-diphenyltetrazolium bromide (MTT) assay after seeding for 24-72 h.

B1: klotho protein: full length mouse Klotho (SEQ ID NO. 3) over-expressed in cells from HA-tagged expression vector pcDNA3-HA-KL (protein)
chain: MLARAPPRRPPRLVLLRLLLLHLLLLALRARCLSAEPGQGAQTWARFARAPAPEAAGLLHDTFPDGFLWAVGSAAYQTEGGWRQHGKGASIWDTFTHHSGAAPSDSPIVVAPSGAPSPPLSSTGDVASDSYNNVYRDTEGLRELGVTHYRFSISWARVLPNGTAGTPNREGLRYYRRLLERLRELGVQPVVTLYHWDLPQRLQDTYGGWANRALADHFRDYAELCFRHFGGQVKYWITIDNPYVVAWHGYATGRLAPGVRGSSRLGYLVAHNLLLAHAKVWHLYNTSFRPTQGGRVSIALSSHWINPRRMTDYNIRECQKSLDFVLGWFAKPIFIDGDYPESMKNNLSSLLPDFTESEKRLIRGTADFFALSFGPTLSFQLLDPNMKFRQLESPNLRQLLSWIDLEYNHPPIFIVENGWFVSGTTKRDDAKYMYYLKKFIMETLKAIRLDGVDVIGYTAWSLMDGFEWHRGYSIRRGLFYVDFLSQDKELLPKSSALFYQKLIEDNGFPPLPENQPLEGTFPCDFAWGVVDNYVQVDTTLSQFTDPNVYLWDVHHSKRLIKVDGVVAKKRKPYCVDFSAIRPQITLLREMRVTHFRFSLDWALILPLGNQTQVNHTVLHFYRCMISELVHANITPVVALWQPAAPHQGLPHALAKHGAWENPHTALAFADYANLCFKELGHWVNLWITMNEPNTRNMTYRAGHHLLRAHALAWHLYDDKFRAAQKGKISIALQADWIEPACPFSQNDKEVAERVLEFDIGWLAEPIFGSGDYPRVMRDWLNQKNNFLLPYFTEDEKKLVRGSFDFLAVSHYTTILVDWEKEDPMKYNDYLEVQEMTDITWLNSPSQVAVVPWGLRKVLNWLRFKYGDLPMYVTANGIDDDPHAEQDSLRIYYIKNYVNEALKAYVLDDINLCGYFAYSLSDRSAPKSGFYRYAANQFEPKPSMKHYRRIIDSNGFLGSGTLGRFCPEEYTVCTECGFFQTRKSLLVFISFLVFTFIISLALIFHYSKKGQRSYK
modifications: HA tag
Q: Which results are given for B1?
A: tumor growth (tumor size) (Panc1 cells): significant dose-response arrest of tumor growth; reduction of number and size of surviving colonies (MDA-MB-231): 72%; reduction of number and size of surviving colonies (MCF-7): 84%; phosphorylation of IGF-1R, IRS-1, AKT1, GSK3β, ERK-1 and -2 [1]: reduced phosphorylation; expression and phosphorylation of ERK1/2 after EGF [2]: affected neither the expression nor phosphorylation; effect on IGF-1 pathway phosphorylation [3]: only minor effects; effect on IGF-1 pathway phosphorylation [4]: Smaller effects; proliferation slower than controls (MTT assay) [5]: up to 6 fold
